Test results reported in article PMC1182371, “Zinc-finger domains of the transcriptional repressor KLF15 bind multiple sites in rhodopsin and IRBP promoters including the CRS-1 and G-rich repressor elements”.

B1: IRBP1 (dsDNA)
DNA 1: GGACAGGATTAAAGGCTTACTGGAG
DNA 2: CTCCAGTAAGCCTTTAATCCTGTCC
B2: IRBP2 (dsDNA)
DNA 1: GGACTTGTCAGGGCCTTTA
DNA 2: TAAAGGCCCTGACAAGTCC

Biological target: KLF15-ZF-GST (human, UniProt Q9UIH9 294-416)
Assay: competition; 50x, 250x vs bRho29 probe; also hRho29 probe (data not shown); EMSA: 4 mM HEPES, 5 mM EGTA, 100 mM KCl, 0.25 mM ZnCl2, 0.02% NP40, 0.1 M DTT, 4% glycerol, 90-120 min on ice, pH not stated; footprinting: same buffer, DNase I at room temperature 1 min
Details: protein: recombinant; tags: N-terminal GST; label: unlabeled; GG ends end-filled

KLF15-ZF-GST, sequence (Q9UIH9 294-416): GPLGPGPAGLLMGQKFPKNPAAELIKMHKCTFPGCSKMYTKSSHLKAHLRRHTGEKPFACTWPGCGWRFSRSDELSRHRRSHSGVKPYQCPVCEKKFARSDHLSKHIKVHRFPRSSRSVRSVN

Binder	binding result
B1	no binding
B2	no binding
